In patent US20230047413A1 (Janssen / Centocor, published 2023):
Blank lines part the entries; values can stand above or below the binder they belong to.

Tests used:
Peptide-2 [1] = target: T1, Peptide-2 (human, phosphothreonine 212, phosphothreonine 217 (tau 2N4R numbering); short chain biotin (SCBiot) and dPEG4 at the N-terminus; amide at the C-terminus); assay: SPR ProteOn, peptide captured, Fab as analyte; range of n=2; upper end of n=2 range
T1 construct: also called pT212/pT217-tau peptide (Peptide-2)
T1 sequence (peptide, as listed by the source): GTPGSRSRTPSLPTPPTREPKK
Procedure: (§1) A subset of HFA-PT3 monoclonal antibody variants, selected based on biophysical characterization and ELISA binding to PHF, were analyzed by Surface Plasmon Resonance (SPR) with a ProteOn XPR36 for binding to the following phosphopeptides: pT212/pT217-tau peptide (Peptide-2, SEQ ID NO: 48) and pT212-tau peptide (Peptide-8, SEQ ID NO: 54). All experiments were performed at 25° C. using PBST, pH 7.4, (Bio-Rad Cat#176-2720) as both running buffer and sample dilution buffer.
(§2) Fab/peptide binding. Biotinylated peptide was captured on a neutravidin-coated NLC biosensor chip pre-conditioned with PBST, and Fab was flowed over the surface to measure kinetic parameters. Approximately 5-10 RU of peptide was captured on the chip surface by diluting peptide to 10 ng/mL in PBST and injecting over the flow channels at 30 μL/min for 100 s. Serial dilutions of PT3 Fab (1.1 nM to 90 nM) were injected at 60 μL/min for 3 minutes (association phase), followed by 300 s of buffer only (dissociation phase).
(§3) Data were double referenced by subtraction of the interspot response, and the curves generated by the buffer only injection. The chip surface was regenerated with 0.85% phosphoric acid, followed by PBST injection before the next antibody titration injection. Data processing and analysis were performed using instrument software. The data were fit using a simple Langmuir 1:1 binding model.

[2] = target: T2, PHF-tau (paired helical filament tau isolated from Alzheimer's disease brain) (human, UniProt P10636-8 2-441, limits assumed, hyper-phosphorylated, aggregated; sites not listed for the preparation); assay: SPR ProteOn, PHF-tau capture-coupled via HT7, 1:1 model
T2 construct: also called enriched PHF-tau; ePHF-tau
T2 sequence (P10636 other isoform, or with tags, fused parts or gaps limits assumed): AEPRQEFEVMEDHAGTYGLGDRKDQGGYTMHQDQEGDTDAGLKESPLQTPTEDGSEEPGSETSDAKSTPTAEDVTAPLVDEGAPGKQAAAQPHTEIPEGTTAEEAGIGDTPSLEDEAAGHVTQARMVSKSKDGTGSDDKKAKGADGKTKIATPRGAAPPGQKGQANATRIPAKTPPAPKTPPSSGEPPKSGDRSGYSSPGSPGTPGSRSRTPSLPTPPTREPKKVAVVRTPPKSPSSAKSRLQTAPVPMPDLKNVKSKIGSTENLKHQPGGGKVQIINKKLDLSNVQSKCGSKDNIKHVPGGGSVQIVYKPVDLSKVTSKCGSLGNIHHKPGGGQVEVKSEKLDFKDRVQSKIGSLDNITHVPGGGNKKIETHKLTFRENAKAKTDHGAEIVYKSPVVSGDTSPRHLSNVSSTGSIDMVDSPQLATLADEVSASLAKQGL
Procedure: (§4) A subset of HFA-PT3 monoclonal antibodies was tested for binding to PHF-tau isolated from Alzheimer's disease brain. All interactions were studied at 25° C. using PBS pH 7.4, supplemented with 3 mM EDTA, and 0.005% Tween 20 as running or system buffer. HT7 (Pierce, catalog #MN1000), a mouse anti-tau antibody, was used as a positive control.
(§5) The interaction of anti-tau monoclonal antibodies with PHF-tau was analyzed by ProteOn using a biosensor surface prepared by capture-coupling PHF-tau using HT7 as the capture reagent. PHF-tau was prepared by 2-times centrifugation at 5000×g at 5° C. for 10 min; the supernatant from the second centrifugation was then diluted 1/40 in running buffer. To prepare the chip, HT7 was covalently immobilized to the surface of a GLC (ProteOn) sensor chip using the manufacturer's instructions for amine-coupling chemistry (˜5000 response units (RU)). The coupling buffer was 10 mM sodium acetate, pH 4.5. After HT7 immobilization, PHF-tau was injected and captured (˜300 RU) by HT7. After capture, PHF-tau was covalently immobilized to the sensor chip by activation of the chip using the manufacturer's instructions for amine-coupling chemistry. Remaining reactive sites were blocked by the injection of ethanolamine. After preparation and stabilization of the PHF-tau-modified surface and reference surface (containing no antigen), the anti-tau antibodies were diluted in the running buffer and injected in solution (0.12-75 nM in 5-fold dilutions). The association was monitored for 3 minutes (120 μL injected at 40 μL/min). The dissociation was monitored for 15 minutes. Regeneration of the sensor surface was performed using 10 mM Gly pH 2.0. The data for monoclonal antibodies were fit using a bivalent binding model where the apparent affinity (KD) was reported as the ratio of koff/kₒₙ. A Langmuir 1:1 binding model was used for kinetics analysis of Fabs.

Peptide-2 [3] = target: T1, Peptide-2; assay: SPR ProteOn, peptide captured, Fab as analyte; range of n=2
Procedure: as §1, §2, §3

[4] = target: T3, tau phospho-peptide of the direct ELISA of Example 11; assay: direct ELISA on plate-coated tau phospho-peptide, Fabs
T3 construct: also called pT217 peptide; pT212/pT217 peptide
Procedure: (§6) Binding to tau phospho-peptide was analysed by ELISA where peptide (10 ng/mL) was directly coated to the plate overnight. […] After incubation with antibodies, plates were washed and 50 μL per well of HRPO labelled anti-Fab antibody (Jackson Immunoresearch laboratories) (diluted 1:10000 in blocking buffer). After another washing step detection was performed with “One step” TMB (Thermo Scientific) according to the manufacturers' instructions. Plates were analysed in EnVision® 2102 Multilabel Reader (Perkin Elmer, Waltham, Mass., USA). Binding curves were generated using GraphPad Prism7.0 software.

Peptide-2 [5] = target: T1, Peptide-2; assay: SPR ProteOn, peptide captured, Fab as analyte; range of n=2; lower end of n=2 range
Procedure: as §1, §2, §3

[6] = target: T2, PHF-tau (paired helical filament tau …); assay: SPR ProteOn, PHF-tau capture-coupled via HT7, 1:1 model; remark: listed apart in the source
Procedure: (§7) Affinity matured monoclonal antibodies were tested for binding to PHF-tau isolated from Alzheimer's disease brain.
(§8) A GLC sensor chip was covalently immobilized with a mouse anti-tau antibody, HT7 (ThermoFisher, catalog# MN1000) using the vendor recommended protocol for amine-coupling chemistry (˜5000 response units, RU). The coupling buffer was 10 mM, pH 4.5 sodium acetate. PHF-tau was prepared by 2-times centrifugation at 5000×g in 5° C. for 10 min. […] After capture-coupling, the surface was activated and deactivated to generate a homogenous PHF-tau surface for antibody binding studies. The anti-tau antibodies and their Fabs (prepared in running buffer, 0.024-75 nM at 5-fold dilutions) were injected at 50 μL/min over the PHF-tau surface to measure binding. The association and dissociation profiles were monitored for 4 minutes and 2 hours, respectively. After dissociation, the sensor chip was regenerated using multiple injections of 10 mM Glycine pH 2.0 and the running buffer. A reference surface (without any PHF-tau) was used to monitor non-specific binding of the injected mAbs or Fabs. HT7 antibody was used as a positive control. The binding sensorgrams for mAbs were fit using a bivalent binding model where the apparent affinity or avidity-driven binding (KD) was reported as the ratio of off-rate and on-rate (koff/kₒₙ). A 1:1 Langmuir binding model was used for kinetics analysis of Fabs.

Peptide-2 [7] = target: T1, Peptide-2; assay: SPR ProteOn, peptide captured, Fab as analyte
Procedure: as §1, §2, §3

[8] = target: T3, tau phospho-peptide of the direct ELISA …; assay: direct ELISA, peptide coated
Procedure: as §6

[9] = target: T2, PHF-tau (paired helical filament tau …); assay: SPR ProteOn, PHF-tau on chip
Peptide-2 [10] = target: T1, Peptide-2; assay: SPR ProteOn, mAb captured, peptide as analyte
Procedure: as §1
(§9) Monoclonal antibody/Peptide binding. […] Anti-human IgG was amine-coupled to the chip surface using EDC/NHS, then washed with ethanolamine. Antibodies were diluted to 2 μg/mL in PBST and injected on the surface for 5 min at 30 μL/min to achieve a maximum density of 900-1000 RU. Peptides were injected as analytes at 60 μL/min for 3 min, followed by 5 min dissociation. Peptide-2 was diluted in PBST to generate a three-fold concentration series (0-30 nM) and measured in duplicate. Single measurements of monoclonal antibody binding to Peptide-8 were recorded over the concentration range 0-100 nM.
as §3

Peptide-2 [11] = target: T1, Peptide-2; assay: SPR ProteOn, mAb captured, peptide as analyte; range of n=2; upper end of n=2 range
Procedure: as §1, §9, §3

[12] = target: T2, PHF-tau (paired helical filament tau …); assay: SPR ProteOn, PHF-tau capture-coupled via HT7, bivalent model
Procedure: as §4, §5

Peptide-2 [13] = target: T1, Peptide-2; assay: SPR ProteOn, mAb captured, peptide as analyte; range of n=2; lower end of n=2 range
Procedure: as §1, §9
as §3, with “The data were fit using a simple Langmuir 1:1 binding model.” left out

Peptide-2 [14] = target: T1, Peptide-2; assay: SPR ProteOn, mAb captured, peptide as analyte; range of n=2
Procedure: as §1, §9, §3

[15] = target: T2, PHF-tau (paired helical filament tau …); assay: SPR ProteOn, PHF-tau capture-coupled via HT7, 1:1 model; upper end of range
Procedure: as §7, §8

[16] = target: T2, PHF-tau (paired helical filament tau …); assay: SPR ProteOn, PHF-tau capture-coupled via HT7, 1:1 model; lower end of range
Procedure: as §7, §8

koff (Peptide-2 [1]): 0.000186 s⁻¹ | kon (Peptide-2 [1]): 793000 M⁻¹ s⁻¹ | Kd [2]: 0.167 nM | koff [2]: 0.000136 s⁻¹ | kon [2]: 816000 M⁻¹ s⁻¹ | Kd (Peptide-2 [3]): 0.234 to 0.376 nM | kon (Peptide-2 [3]): 427000 M⁻¹ s⁻¹ | EC50 (read off the curve) [4]: ~0.5 nM | koff (Peptide-2 [5]): 0.000161 s⁻¹ | Kd [6]: 0.0632 nM | koff [6]: 9.03e-05 s⁻¹ | kon [6]: 1.43e+06 M⁻¹ s⁻¹ | Kd (Peptide-2 [7]): 0.305 nM | koff (Peptide-2 [7]): 0.000174 s⁻¹ | kon (Peptide-2 [7]): 610000 M⁻¹ s⁻¹ | EC50 [8]: 0.341 nM | fold slower off-rate than B326 [9]: 1.7 fold | fold stronger affinity (KD) than B326 [9]: 1.3 fold | fold weaker KD than the mouse PT3 parent Fab B187 [9]: 2.5 fold
B1: B324 (Fab of B296) (Fab, V domains shown)
VH: QVQLVESGGGVVQPGRSLRLSCAASGFTFSSYAMSWVRQAPGKGLEWVASISKGGNTYYADSVKGRFTISRDNSKNTLYLQMNSLRAEDTAVYYCARGWGDYGWFAYWGQVTLVTVSS
VL: DIQMTQSPSSLSASVGDRVTITCKASQDINRYLNWFQQKPGKAPKSLIYRANRLLDGVPSRFSGSGSGTDFTLTISSLQPEDFATYYCLQYDEFPLTFGQGTKLEIK
notes: also called M324; B296 Fab

Kd (Peptide-2 [10]): 1.79 nM | koff (Peptide-2 [10]): 0.00569 s⁻¹ | kon (Peptide-2 [10]): 3.21e+06 M⁻¹ s⁻¹ | koff (Peptide-2 [11]): 0.0061 s⁻¹ | kon (Peptide-2 [11]): 3.58e+06 M⁻¹ s⁻¹ | Kd [12]: 0.165 nM | koff [12]: 8.06e-05 s⁻¹ | kon [12]: 490000 M⁻¹ s⁻¹ | koff (Peptide-2 [13]): 0.00528 s⁻¹ | Kd (Peptide-2 [14]): 1.71 to 1.86 nM | kon (Peptide-2 [14]): 2.84e+06 M⁻¹ s⁻¹
B2: B235 (antibody, human IgG1, V domains shown)
VH: EVQLLESGGGLVQPGGSLRLSCAASGFTFSSYAMSWVRQAPGKGLEWVSSISKGGNTYYADSVKGRFTISRDNSKNTLYLQMNSLRAEDTAVYYCAKGWGDYGWFAYWGQVTLVTVSS
VL: DIQMTQSPSSLSASVGDRVTITCKASQDINRYLNWFQQKPGKAPKSLIYRANRLLDGVPSRFSGSGSGTDFTLTISSLQPEDFATYYCLQYDEFPLTFGQGTKLEIK
notes: Humanized (HFA) PT3 variant, human IgG1/kappa; also called VH91/VL77

Kd [15]: 0.0158 nM | koff [15]: 7.36e-05 s⁻¹ | kon [15]: 4.66e+06 M⁻¹ s⁻¹ | EC50 (read off the curve) [4]: ~0.2 nM | Kd [6]: 0.0156 nM | koff [6]: 7.15e-05 s⁻¹ | kon [6]: 4.6e+06 M⁻¹ s⁻¹ | EC50 [8]: 0.107 nM | Kd [16]: 0.0153 nM | koff [16]: 6.94e-05 s⁻¹ | kon [16]: 4.53e+06 M⁻¹ s⁻¹
B3: B330 (Fab of B711) (Fab, V domains shown)
VH: QVQLVESGGGVVQPGRSLRLSCAASGFTFTSYAMSWVRQAPGKGLEWVASITKGGNTYYADSVKGRFTISRDNSKNTLYLQMNSLRAEDTAVYYCARGWGIYGWFAYWGQVTLVTVSS
VL: DIQMTQSPSSLSASVGDRVTITCKASQDINRWLNWFQQKPGKAPKSLIYRANRLLDGVPSRFSGSGSGTDFTLTISSLQPEDFATYYCLQYDEFPLTFGQGTKLEIK
notes: the Fab's constant parts and tag are not described; also called M330; M333 (the Fab of B711)
